The values that follow come from article PMC6048123.

Assay [1] deals with FimA domain of the self-complemented construct FimA-DS_(FimA), oxidized (FimAS-S), in the polyprotein (I91)2-FimA-(I91)2 (E. coli) (UniProt P04128). Nature of the assay: single-molecule force spectroscopy (AFM, force-extension).
In assay [2] the target is FimF domain, β-strand-complemented and oxidized, in the array polyprotein (I91)2-FimF-FimG-FimH-(I91)2 (E. coli) (UniProt P08189). Nature of the assay: single-molecule force spectroscopy (AFM, force-ramp).
Assay [3] addresses FimF domain of the self-complemented construct FimF-DS_(FimA), oxidized (FimFS-S), in the polyprotein (I91)2-FimF-(I91)2 (E. coli) (UniProt P08189). Nature of the assay: single-molecule force spectroscopy (AFM, force-extension).
The target in assay [4] is FimH (lectin subdomain FimHL and pilin subdomain FimHP) of the self-complemented construct FimH-DS_( (E. coli) (UniProt P08191)). The assay is described as above.
For assay [5], the target named is FimH (lectin and pilin subdomains), β-strand-complemented and oxidized, in the array polyprotein (I9 (E. coli) (UniProt P08191)). Nature of the assay: single-molecule force spectroscopy (AFM, force-ramp).
The target in assay [6] is FimG domain of the self-complemented construct FimG-DS_(FimF), oxidized (FimGS-S), in the polyprotein (I91)2-FimG-(I91)2 (E. coli). Nature of the assay: single-molecule force spectroscopy (AFM, force-extension).
Sequence of FimG domain of the self-complemented construct FimG-DS_(FimF), oxidized (FimGS-S), in the polyprotein (I91)2-FimG-(I91)2 (E. coli) (P08190 24-167): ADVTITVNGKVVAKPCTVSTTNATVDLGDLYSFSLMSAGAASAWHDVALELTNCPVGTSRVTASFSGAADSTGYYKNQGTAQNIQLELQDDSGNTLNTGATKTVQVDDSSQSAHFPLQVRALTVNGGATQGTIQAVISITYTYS
Assay [7] deals with FimG domain, β-strand-complemented and oxidized, in the array polyprotein (I91)2-FimF-FimG-FimH-(I91)2 (E. coli). Nature of the assay: single-molecule force spectroscopy (AFM, force-ramp).
Sequence of FimG domain, β-strand-complemented and oxidized, in the array polyprotein (I91)2-FimF-FimG-FimH-(I91)2 (E. coli) (P08190 24-167): as above
Assay [8] deals with FimG domain of the self-complemented construct FimG-DS_(FimF), reduced (FimG_(SH-SH)), in the polyprotein (I91)2-FimG-(I91)2 (E. coli).

Sequence of UniProt P04128 (P04128 24-182): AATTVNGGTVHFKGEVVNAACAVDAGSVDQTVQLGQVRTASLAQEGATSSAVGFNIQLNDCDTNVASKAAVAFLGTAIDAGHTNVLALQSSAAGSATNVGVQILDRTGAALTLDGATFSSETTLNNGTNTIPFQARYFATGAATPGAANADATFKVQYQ

For “donor β-strand of FimA (DS_(FimA)) linked by DNKQ to the C-terminus of FimA in (I91)2-FimA-(I91)2 (from UniProt P04128) (peptide)”, the unfolding force (rupture of the β-strand interaction) in assay [1] worked out at 527 pN.

“donor β-strand of FimA complementing FimF in the array polyprotein (I91)2-FimF-FimG-FimH-(I91)2 (peptide)”: in assay [2], the unfolding force in force-ramp (rupture of the β-strand interaction) worked out at 281 pN. The molecule “donor β-strand of FimA (DS_(FimA)) linked by DNKQ to the C-terminus of FimF in (I91)2-FimF-(I91)2 (peptide)” displayed an unfolding force (rupture of the β-strand interaction) in assay [3] of 418 pN.

Turning to “donor β-strand of FimG (DS_(FimG)) linked by DNKQ to the C-terminus of FimH in (I91)2-FimH-(I91)2 (from UniProt P08190) (peptide)”, in assay [4], the rupture force of FimHP (rupture of the β-strand interaction) stood at 362 pN.

For “donor β-strand of FimG complementing FimH in the array polyprotein (I91)2-FimF-FimG-FimH-(I91)2 (from UniProt P08190) (peptide)”, the unfolding force of FimHP in force-ramp (rupture of the β-strand interaction) in assay [5] came out at 238 pN.

B1: donor β-strand of FimF (DS_(FimF)) linked by DNKQ to the C-terminus of FimG in (I91)2-FimG-(I91)2 (peptide)
chain: DNKQADSTITIRGYVRDNGCSVAAESTNFTVDLMENAAKQFNNIGATTPVVPFRILLSPCGNAVSAVKVGFTGVADSHNANLLALENTVSAASGLGIQLLNEQQNQIPLNAPSSALSWTTLTPGKPNTLNFYARLMATQVPVTAGHINATATFTLEYQ
The molecule B1 had an unfolding force (rupture of the β-strand interaction) in assay [6] of 431 pN.

B2: donor β-strand of FimF complementing FimG in the array polyprotein (I91)2-FimF-FimG-FimH-(I91)2 (peptide)
chain: B1 chain
For the molecule B2, in assay [7], the unfolding force in force-ramp (rupture of the β-strand interaction) was 261 pN.

B3: DsbA oxidoreductase (enzyme)
chain: AQYEDGKQYTTLEKPVAGAPQVLEFFSFFCPHCYQFEEVLHISDNVKKKLPEGVKMTKYHVNFMGGDLGKDLTQAWAVAMALGVEDKVTVPLFEGVQKTQTIRSASDIRDVFINAGIKGEEYDAAWNSFVVKSLVAQQEKAAADVQLRGVPAMFVNGKYQLNPQGMDTSNMDVFVQQYADTVKYLSEKK
As for B3, in assay [8], the refolding probability of FimG in force-clamp AFM after 45 s at 0 pN, with DsbA (100 μM) against reduced FimG alone (around 20%) came out at 70%.
